The text below walks through data of patent publication US20040170622A1, “Methods and compositions for modulating XBP-1 activity” (President and Fellows of Harvard College, priority 2002, published 2004).

For assay [1], the target named is T1, IL-6/IL-6 R complex with gp130 (Homo sapiens, UniProt P08887).
T1 sequence (P08887 20-468): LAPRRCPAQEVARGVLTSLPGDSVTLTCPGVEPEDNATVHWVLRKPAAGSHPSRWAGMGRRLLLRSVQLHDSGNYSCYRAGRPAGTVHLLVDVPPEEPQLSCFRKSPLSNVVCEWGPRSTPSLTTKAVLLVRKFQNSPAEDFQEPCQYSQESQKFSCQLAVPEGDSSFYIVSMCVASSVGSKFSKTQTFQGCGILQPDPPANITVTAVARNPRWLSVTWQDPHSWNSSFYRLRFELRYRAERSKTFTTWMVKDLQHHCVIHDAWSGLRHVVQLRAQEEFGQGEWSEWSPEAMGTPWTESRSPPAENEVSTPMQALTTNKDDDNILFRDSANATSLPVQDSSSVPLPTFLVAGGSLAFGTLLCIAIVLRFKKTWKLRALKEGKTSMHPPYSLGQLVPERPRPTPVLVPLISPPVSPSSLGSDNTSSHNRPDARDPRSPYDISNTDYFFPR
T1 sequence (P40189 23-918 partner): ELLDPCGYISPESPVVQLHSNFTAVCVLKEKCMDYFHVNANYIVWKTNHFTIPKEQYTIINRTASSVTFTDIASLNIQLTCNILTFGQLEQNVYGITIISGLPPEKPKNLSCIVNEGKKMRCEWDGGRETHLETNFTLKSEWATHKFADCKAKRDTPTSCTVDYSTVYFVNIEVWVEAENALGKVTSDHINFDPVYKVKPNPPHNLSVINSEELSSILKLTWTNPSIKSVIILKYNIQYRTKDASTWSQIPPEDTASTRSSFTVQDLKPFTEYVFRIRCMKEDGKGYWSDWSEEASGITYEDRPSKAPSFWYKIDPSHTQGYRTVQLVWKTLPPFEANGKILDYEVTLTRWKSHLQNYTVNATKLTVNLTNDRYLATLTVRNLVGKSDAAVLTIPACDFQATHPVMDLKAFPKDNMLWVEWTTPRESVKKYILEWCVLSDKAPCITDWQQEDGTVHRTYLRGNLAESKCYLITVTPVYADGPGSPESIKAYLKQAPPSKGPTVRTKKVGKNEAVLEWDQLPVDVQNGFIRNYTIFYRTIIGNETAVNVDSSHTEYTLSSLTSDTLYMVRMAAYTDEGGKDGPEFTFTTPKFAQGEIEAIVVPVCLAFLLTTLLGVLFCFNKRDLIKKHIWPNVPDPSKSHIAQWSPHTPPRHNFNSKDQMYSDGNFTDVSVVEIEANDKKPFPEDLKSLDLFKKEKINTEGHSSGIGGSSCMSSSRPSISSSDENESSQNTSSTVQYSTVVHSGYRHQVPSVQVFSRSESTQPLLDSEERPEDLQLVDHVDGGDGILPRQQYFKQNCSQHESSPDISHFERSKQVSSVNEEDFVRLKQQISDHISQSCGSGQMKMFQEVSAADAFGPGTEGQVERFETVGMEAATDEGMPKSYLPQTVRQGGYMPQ
Conditions: IL-6/IL-6R complex on the membrane with gp130; read-out: Kd (high affinity); cited from earlier work.

A further assay addresses T2, IL-6R (Homo sapiens, UniProt P08887).
T2 sequence (P08887 20-468): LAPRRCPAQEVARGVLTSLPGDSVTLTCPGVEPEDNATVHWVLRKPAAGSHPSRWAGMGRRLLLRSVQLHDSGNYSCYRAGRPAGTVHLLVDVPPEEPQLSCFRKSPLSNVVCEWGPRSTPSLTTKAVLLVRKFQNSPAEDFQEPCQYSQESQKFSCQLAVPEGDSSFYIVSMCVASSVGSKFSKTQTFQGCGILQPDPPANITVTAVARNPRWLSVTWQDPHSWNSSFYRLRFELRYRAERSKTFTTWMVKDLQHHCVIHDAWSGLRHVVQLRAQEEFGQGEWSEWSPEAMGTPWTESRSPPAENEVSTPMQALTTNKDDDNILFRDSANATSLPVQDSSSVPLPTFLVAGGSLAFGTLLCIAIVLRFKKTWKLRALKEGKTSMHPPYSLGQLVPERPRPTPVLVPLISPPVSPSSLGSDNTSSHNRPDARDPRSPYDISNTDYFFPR
Conditions: IL-6R alone; read-out: Kd (low affinity); cited from earlier work.

For assay [2], the target named is XBP-1s (spliced form of murine XBP-1 protein, 371 aa) (mouse) (UniProt O35426). Description: cell-based or functional assay.
The test system of the next assay is XBP-1 mRNA splicing. Description: XBP-1 mRNA splicing and XBP-1s protein in purified murine B cells (RT-PCR, Western blot). Format: cell-based. Conditions: for XBP-1 mRNA splicing (RT-PCR): purified murine B cells, 24-72 h. How it is done: (§1) Mouse splenocytes or purified B cells (purified mature B cells were isolated from spleen and lymph nodes by magnetic CD43 depletion or B220 magnetic bead selection, Miltenyi Biotech, Auburn Calif.) were plated at 1×10^6 cells/ml in complete media containing RPMI 1640 supplemented with 10% fetal calf serum (FBS)(Hyclone Laboratories), glutamine (2 mM), penicillin (50 units/ml), streptomycin (50 μg/ml), Hepes (100 mM), nonessential amino acids (1×) sodium pyruvate (1 mM) and β-ME (50 μM) and stimulated with anti-CD40(1 μg/ml)(Pharmigen) or LPS (20 μg/ml)(Sigma). Cytokines (R&D Systems, Minneapolis, Minn.) were used at IL-4 (20 ng/ml), IL-2 (20 ng/ml), Il-5 (20 ng/ml), IL-6 (20 ng/ml ), IL-10 (20 ng/ml ) and IL-13 (20 ng/ml). Stimulated B cells were split to a cell concentration of 1×10^6 cells/ml with fresh media every 24 h. The BCL1 (CWS13.20-3B3 ATCC CRL 1699) cell line was cultured in RPMI media supplemented with 10% FBS, gentamicin (20 μg/ml), and β-ME (50 μM). To induce differentiation cells were plated at 2×10^5 cells/ml and treated with recombinant mouse IL-2 and IL-5 (20 ng/ml) (R&D systems).
Total RNA was isolated using TriZo1 (Gibco-BRL) or Qiashedder/Rneasy RNA purification columns (Quiagen). Northern Blots were performed as described (Rengarajan et al., 2000 Immunity. 12:293-300). […] The following probes were used after ^32P-radiolabeling with the ReadyPrime labeling system (Amersham-Pharmacia): XBP-1 (15-830 of the murine coding region), GRP94 and GRP78 (both a kind gift of R. J. Kaufman Univ. of Michigan (Lee et al., 2002)), Blimp (Nco1-Sca1 fragment), c-myc cDNA and Il-6 cDNA . […]
The UPR is induced in cells that detect irregular amounts of unfolded or unassembled protein in the lumen of the ER. […] Total RNAs were prepared at the indicated time point and XBP-1 mRNA levels (a) were determined by Northern blot analysis with γ-actin control (b). […] XBP-1s protein levels were also measured by Western blot analysis (d). […] In panel (C) XBP-1s protein levels were measured by Western blot analysis in the cells stimulated as indicated for 72 hours.
On the technique in general: A western blot detects proteins with antibodies after separation by electrophoresis.

A further assay has as its system spliced XBP-1. Description: Inhibition of transactivation function of spliced XBP-1, luciferase in NIH 3T3 cells. It is filed as cell-based. The settings on record: NIH 3T3, 200 ng spliced XBP-1, 200 ng mutant. On the procedure:
Versions of XBP-1 with various deletions of the C terminal transcription activating domain (e.g., consisting of the N terminal 225, 188, or 136 amino acids of the spliced form of XBP-1) that expressed high levels of protein by western analysis were created. The proteins were tested for their ability to inhibit the transactivation function of spliced XBP-1. Both the 188 and 136 N terminal mutants were extremely potent inhibitors (effective at a 1:1 ratio) of the spliced XBP-1. NIH 3T3 cells expressing XBP-1uc constructs were transfected with 200 ng of spliced XBP-1, yielding a relative luciferase activity of 44.5. 200 ng of XBP-N188 lowered the luciferase level to 1.8 and 200 ng of XBP-N136 lowered the luciferase activity to 2.2.

The next assay deals with XBP-1 mRNA. Description: XBP-1 mRNA induction by cytokines in purified splenic B cells (Northern blot). Format: cell-based, mouse. On the procedure:
as §1
Total RNA was isolated using TriZo1 (Gibco-BRL) or Qiashedder/Rneasy RNA purification columns (Quiagen). Northern Blots were performed as described (Rengarajan et al., 2000 Immunity. 12:293-300). Briefly, 7-10 μg RNA were electrophoresed on 1.2% agarose, 6% formaldehyde gels transferred onto Genescreen membrane (NEN) and covalently bound to the membrane using UV Stratalinker (Stratagene). The following probes were used after ^32P-radiolabeling with the ReadyPrime labeling system (Amersham-Pharmacia): XBP-1 (15-830 of the murine coding region), GRP94 and GRP78 (both a kind gift of R. J. Kaufman Univ. of Michigan (Lee et al., 2002)), Blimp (Nco1-Sca1 fragment), c-myc cDNA and Il-6 cDNA . […]
Since XBP-1 is required for terminal B cell differentiation, it was important to identify the stimuli that regulate XBP-1 gene expression. A plethora of cytokines (IL-2, IL-4, IL-5, IL-6, IL-10, IL-13) has been implicated in plasma cell differentiation both in vitro and in vivo (reviewed in Calame, K. L. (2001 Nat. Inimunol. 2: 1103-1108; Liu, Y. J., and Banchereau, J. (1997). Sem Immunol 9: 235; Zubler, 1997Sem. Hematol 34:13). It was possible that these cytokines effected terminal B cell differentiation by modulating XBP-1 gene expression. Thus, the ability of these cytokines to upregulate XBP-1 mRNA transcripts in B cells was tested. Purified splenic B cells were cultured for 24 h in the presence or absence of various cytokines and XBP-1 expression determined by Northern blot analysis. […] XBP-1 mRNA levels were determined by Northern blot analysis with γ-actin as control. […] XBP-1 mRNA levels were determined as above. […]

[3] abbreviates: purified B cells treated with IL-4.

As a reminder, the Kd is the constant that tells how readily two partners part at equilibrium.

As to “IL-6: multi-functional cytokine; mature human IL-6 is a 185 amino acid polypeptide”, the dissociation constant Kd in assay [1] is around 0.01 nM; with IL-6R, around 1 nM.

For “XBP-N136 (N terminal 136 amino acids of the spliced form of XBP-1) (from UniProt O35426 1-136)”, in assay [2], the relative luciferase activity in NIH 3T3 cells (44.5 with 200 ng of spliced XBP-1 alone) (relative luciferase activity) turned out to be 2.2.

Regarding lipopolysaccharide [LPS], the “spliced XBP-1 protein production” value in the assay with XBP-1 mRNA splicing (in the absence of other stimuli) is on record as “competent to produce substantial amounts of spliced XBP-1 protein”. In addition, in the assay with XBP-1 mRNA splicing, the “XBP-1 mRNA splicing (RT-PCR)” value is recorded as “an additional band of 145 bp corresponding to the spliced form of XBP-1 mRNA”.

B1: XBP-N188: XBP-1 deletion mutant consisting of the N terminal 188 amino acids of the spliced form (protein)
chain: MVVVAAAPSAATAAPKVLLLSGQPASGGRALPLMVPGPRAAGSEASGTPQARKRQRLTHLSPEEKALRRKLKNRVAAQTARDRKKARMSELEQQVVDLEEENHKLQLENQLLREKTHGLVVENQELRTRLGMDTLDPDEVPEVEAKGSGVRLVAGSAESAAGAGPVVTSPEHLPMDSDTVASSDSESD
B1 yielded a relative luciferase activity in the assay with spliced XBP-1 of 1.8.

B2: XBP-N136: XBP-1 deletion mutant consisting of the N terminal 136 amino acids of the spliced form (protein, UniProt O35426 1-136, looked up, fragment)
chain: MVVVAAAPSAATAAPKVLLLSGQPASGGRALPLMVPGPRAAGSEASGTPQARKRQRLTHLSPEEKALRRKLKNRVAAQTARDRKKARMSELEQQVVDLEEENHKLQLENQLLREKTHGLVVENQELRTRLGMDTLD
modifications: XBP-1s
notes: XBP-1 deletion mutant consisting of the N terminal 136 amino acids of the spliced form
Take B2: the relative luciferase activity in the assay with spliced XBP-1 turned out to be 2.2.

B3: IL-4: multi-functional cytokine; recombinant IL-4 used at 20 ng/ml (protein, UniProt P05112 25-153, looked up)
Interleukin-4: HKCDITLQEIIKTLNSLTEQKTLCTELTVTDIFAASKNTTEKETFCRAATVLRQFYSHHEKDTRCLGATAQQFHRHKQLIRFLKRLDRNLWGLAGLNSCPVKEANQSTLENFLERLKTIMREKYSKCSS
For B3, the “XBP-1 mRNA splicing (RT-PCR)” value in the assay on XBP-1 mRNA splicing is listed as “unable to induce splicing”. Besides, in the assay on XBP-1 mRNA (setting [3]), the “time at which XBP-1 transcript increase is apparent” value is at most 1 h and the “time of peak of XBP-1 transcripts” value is listed as “around 8 h”. Also, the XBP-1 transcript induction result in the assay with XBP-1 mRNA (purified splenic B cells, cytokines 20 ng/ml, 24 h) was “induced a significant amount of XBP-1 ranscript”.
